Reference: publication PMC10869471, “Pectin methylesterase 31 is transcriptionally repressed by ABI5 to negatively regulate ABA-mediated inhibition of seed germination”
Where a chain is given by its changes, count along the chain named.

Columns and labels:
His-ABI5 [1] = target: T1, His-ABI5 (UniProt Q9SJN0 1-442); test: EMSA; suppressed by 50x and 100x unlabeled probe; Chemiluminescent EMSA Kit (Beyotime); binding buffer, salt, pH and temperature not stated (protein eluted in 100 mM HEPES, 500 mM imidazole, pH 7.5); conditions: protein: recombinant; tags: His (pET-30a); label: biotin; blunt
T1 sequence: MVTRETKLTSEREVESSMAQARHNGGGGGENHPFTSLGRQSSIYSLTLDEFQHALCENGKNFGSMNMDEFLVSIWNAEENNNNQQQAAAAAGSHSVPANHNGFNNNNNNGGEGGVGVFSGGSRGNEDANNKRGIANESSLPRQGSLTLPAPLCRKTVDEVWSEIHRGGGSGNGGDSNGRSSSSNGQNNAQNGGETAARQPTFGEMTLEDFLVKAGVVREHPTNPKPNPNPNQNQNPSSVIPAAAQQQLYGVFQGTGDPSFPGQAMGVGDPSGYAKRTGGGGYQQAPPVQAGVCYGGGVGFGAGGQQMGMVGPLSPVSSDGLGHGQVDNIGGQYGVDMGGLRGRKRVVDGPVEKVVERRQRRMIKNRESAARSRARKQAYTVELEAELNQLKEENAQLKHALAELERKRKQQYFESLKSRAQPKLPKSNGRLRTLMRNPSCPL

His-ABI5 [2] = target: T1, His-ABI5; test: competition; 100x unlabeled mutated competitor against labeled N1; Chemiluminescent EMSA Kit (Beyotime); binding buffer, salt, pH and temperature not stated (protein eluted in 100 mM HEPES, 500 mM imidazole, pH 7.5); conditions: protein: recombinant; tags: His (pET-30a); blunt

B1: proPME31 probe (50 bp) (dsDNA)
DNA 1: TTGAACAAAGAACTGTTACACGTAGAACCAAACAATATGATGAAAAGTAT
DNA 2: ATACTTTTCATCATATTGTTTGGTTCTACGTGTAACAGTTCTTTGTTCAA
B1: binds (His-ABI5 [1]).

B2: proPME31 mutated probe (mComp) (dsDNA)
DNA 1: B1 DNA 1 with C19A, C21A, G22A, T23A
DNA 2: B1 DNA 2 with A28T, C29T, G30T, G32T
B2: no binding (His-ABI5 [2]).
